Results as given in IntAct's records for PubMed 10409688.

B1: Eukaryotic initiation factor 4F subunit p150 (Saccharomyces cerevisiae), P39935 (parent)
chain: MTDETAHPTQSASKQESAALKQTGDDQQESQQQRGYTNYNNGSNYTQKKPYNSNRPHQQRGGKFGPNRYNNRGNYNGGGSFRGGHMGANSSNVPWTGYYNNYPVYYQPQQMAAAGSAPANPIPVEEKSPVPTKIEITTKSGEHLDLKEQHKAKLQSQERSTVSPQPESKLKETSDSTSTSTPTPTPSTNDSKASSEENISEAEKTRRNFIEQVKLRKAALEKKRKEQLEGSSGNNNIPMKTTPENVEEKGSDKPEVTEKTKPAEEKSAEPEVKQETPAEEGEQGEKGQIKEESTPKVLTFAERLKLKKQQKEREEKTEGKENKEVPVQEETKSAIESAPVPPSEQVKEETEVAETEQSNIDESATTPAIPTKSDEAEAEVEAEAGDAGTKIGLEAEIETTTDETDDGTNTVSHILNVLKDATPIEDVFSFNYPEGIEGPDIKYKKEHVKYTYGPTFLLQFKDKLNVKADAEWVQSTASKIVIPPGMGRGNRSRDSGRFGNNSSRGHDFRNTSVRNMDDRANSRTSSKRRSKRMNDDRRSNRSYTSRRDRERGSYRNEEKREDDKPKEEVAPLVPSANRWVPKFKSKKTEKKLAPDGKTELLDKDEVERKMKSLLNKLTLEMFDAISSEILAIANISVWETNGETLKAVIEQIFLKACDEPHWSSMYAQLCGKVVKELNPDITDETNEGKTGPKLVLHYLVARCHAEFDKGWTDKLPTNEDGTPLEPEMMSEEYYAAASAKRRGLGLVRFIGFLYRLNLLTGKMMFECFRRLMKDLTDSPSEETLESVVELLNTVGEQFETDSFRTGQATLEGSQLLDSLFGILDNIIQTAKISSRIKFKLIDIKELRHDKNWNSDKKDNGPKTIQQIHEEEERQRQLKNNSRSNSRRTNNSSNRHSFRRDAPPASKDSFITTRTYSQRNSQRAPPPKEEPAAPTSTATNMFSALMGESDDEE
partner: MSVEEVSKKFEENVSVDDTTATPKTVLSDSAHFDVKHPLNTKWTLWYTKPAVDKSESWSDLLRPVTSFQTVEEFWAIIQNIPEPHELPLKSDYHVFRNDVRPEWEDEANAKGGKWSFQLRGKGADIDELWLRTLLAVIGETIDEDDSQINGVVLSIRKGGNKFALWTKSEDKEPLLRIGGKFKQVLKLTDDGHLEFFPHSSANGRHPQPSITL

Variants of: B1
Conditions: with if4e_yeast CDC33, P07260

Effect of a mutation on the interaction, decreasing interaction:
L457A;L458A
K444A
E425D
